# Experiments:
# AncSZ = assay: phosphorylation enrichment, bacterial display (enrichment ratio); higher = better substrate or ligand; peptides without Tyr show the background
# EPHB1 = EPHB1 (UniProt P54762); assay: as above
# EPHB2 = EPHB2 (UniProt P29323); assay: as above
# FGFR1 = FGFR1 (UniProt P11362); assay: as above
# FGFR3 = FGFR3 (UniProt P22607); assay: as above
# Fer (mouse) = assay: as above
# Fes = Fes (UniProt P07332); assay: as above
# Fyn = Fyn (UniProt P06241); assay: as above
# Hck = Hck (UniProt P08631); assay: as above
# Jak2 = Jak2 (UniProt O60674); assay: as above
# Jak2, sequence (O60674 whole entry, looked up): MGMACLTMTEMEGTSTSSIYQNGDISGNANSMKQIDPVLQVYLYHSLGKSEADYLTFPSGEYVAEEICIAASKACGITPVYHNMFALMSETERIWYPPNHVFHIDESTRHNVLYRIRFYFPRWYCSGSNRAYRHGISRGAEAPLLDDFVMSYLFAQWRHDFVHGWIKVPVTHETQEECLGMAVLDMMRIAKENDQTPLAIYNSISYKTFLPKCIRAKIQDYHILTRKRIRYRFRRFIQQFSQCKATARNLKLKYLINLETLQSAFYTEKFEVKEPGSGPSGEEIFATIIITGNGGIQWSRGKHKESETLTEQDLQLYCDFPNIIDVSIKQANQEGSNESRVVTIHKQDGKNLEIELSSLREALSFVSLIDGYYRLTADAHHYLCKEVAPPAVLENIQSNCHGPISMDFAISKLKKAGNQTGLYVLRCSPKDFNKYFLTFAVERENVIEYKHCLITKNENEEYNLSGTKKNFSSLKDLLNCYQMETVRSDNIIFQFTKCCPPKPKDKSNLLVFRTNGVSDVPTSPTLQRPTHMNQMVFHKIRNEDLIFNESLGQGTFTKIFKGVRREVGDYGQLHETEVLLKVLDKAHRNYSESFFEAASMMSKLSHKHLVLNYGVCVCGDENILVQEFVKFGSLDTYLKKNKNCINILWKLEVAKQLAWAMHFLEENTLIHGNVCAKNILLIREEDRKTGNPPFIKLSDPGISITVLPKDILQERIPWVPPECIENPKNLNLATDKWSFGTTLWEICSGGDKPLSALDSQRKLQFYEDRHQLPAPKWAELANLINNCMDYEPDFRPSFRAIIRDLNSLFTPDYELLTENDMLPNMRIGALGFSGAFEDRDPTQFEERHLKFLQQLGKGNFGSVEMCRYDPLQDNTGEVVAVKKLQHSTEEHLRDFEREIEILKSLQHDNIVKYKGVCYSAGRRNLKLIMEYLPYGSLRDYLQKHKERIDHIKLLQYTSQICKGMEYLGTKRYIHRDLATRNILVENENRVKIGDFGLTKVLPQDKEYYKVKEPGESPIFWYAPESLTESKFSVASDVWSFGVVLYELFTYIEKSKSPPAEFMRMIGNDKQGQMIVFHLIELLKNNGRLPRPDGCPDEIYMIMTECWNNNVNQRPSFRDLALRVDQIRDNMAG
# MERTK = MERTK (UniProt Q12866); assay: as above
# c-Abl (mouse) = assay: as above
# c-Src = assay: as above
# Grb2 SH2 = Grb2 SH2 (UniProt P62993); assay: SH2 binding enrichment of the phosphorylated peptide, bacterial display (enrichment ratio); higher = better substrate or ligand; peptides without Tyr show the background
# SHP2-C SH2 = assay: as above
# c-Src SH2 = assay: as above
# 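Throughout, for SH2 binding enrichment of the phosphorylated peptide, bacterial display: peptide library displayed on the E. coli surface as eCPX fusions, selected cells deep-sequenced, score is each peptide's frequency after selection divided by its frequency in the input.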
# 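Throughout, for phosphorylation enrichment, bacterial display: 11-residue human phosphosite peptides and single-mutation variants displayed on the E. coli surface, counted by deep sequencing, each peptide's frequency after selection divided by its frequency in the unselected input library; frequency after pTyr selection over input frequency; kinase dosed for 20-30% of maximal phosphorylation in three min.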
# EPHB2, sequence (P29323 whole entry, looked up): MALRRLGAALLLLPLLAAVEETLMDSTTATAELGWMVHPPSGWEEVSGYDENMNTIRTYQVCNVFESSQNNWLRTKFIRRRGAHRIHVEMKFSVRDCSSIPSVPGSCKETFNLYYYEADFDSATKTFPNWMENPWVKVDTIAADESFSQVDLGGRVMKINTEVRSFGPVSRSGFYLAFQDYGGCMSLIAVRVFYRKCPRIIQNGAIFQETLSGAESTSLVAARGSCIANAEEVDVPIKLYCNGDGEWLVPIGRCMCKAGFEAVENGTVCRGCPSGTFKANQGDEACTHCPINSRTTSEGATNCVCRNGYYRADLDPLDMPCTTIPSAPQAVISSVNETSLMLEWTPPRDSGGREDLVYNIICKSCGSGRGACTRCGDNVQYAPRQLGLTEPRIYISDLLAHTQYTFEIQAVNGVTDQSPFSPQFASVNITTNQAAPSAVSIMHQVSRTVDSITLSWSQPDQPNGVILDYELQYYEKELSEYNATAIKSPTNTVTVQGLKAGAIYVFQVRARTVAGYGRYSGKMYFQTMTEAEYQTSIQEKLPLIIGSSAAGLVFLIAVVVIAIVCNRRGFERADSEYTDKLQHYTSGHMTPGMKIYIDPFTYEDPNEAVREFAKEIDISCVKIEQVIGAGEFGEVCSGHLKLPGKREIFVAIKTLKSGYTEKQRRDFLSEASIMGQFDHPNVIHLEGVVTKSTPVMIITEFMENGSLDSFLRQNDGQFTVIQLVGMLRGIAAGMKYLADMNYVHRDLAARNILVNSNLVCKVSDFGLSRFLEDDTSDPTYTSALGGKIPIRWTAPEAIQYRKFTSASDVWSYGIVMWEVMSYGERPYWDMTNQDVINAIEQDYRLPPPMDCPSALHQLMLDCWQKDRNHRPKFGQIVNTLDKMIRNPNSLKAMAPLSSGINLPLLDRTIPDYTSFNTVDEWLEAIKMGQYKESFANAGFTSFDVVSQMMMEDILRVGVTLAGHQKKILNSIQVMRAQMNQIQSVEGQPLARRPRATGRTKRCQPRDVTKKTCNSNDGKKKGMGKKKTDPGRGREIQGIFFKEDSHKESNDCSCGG
# FGFR3, sequence (P22607 whole entry, looked up): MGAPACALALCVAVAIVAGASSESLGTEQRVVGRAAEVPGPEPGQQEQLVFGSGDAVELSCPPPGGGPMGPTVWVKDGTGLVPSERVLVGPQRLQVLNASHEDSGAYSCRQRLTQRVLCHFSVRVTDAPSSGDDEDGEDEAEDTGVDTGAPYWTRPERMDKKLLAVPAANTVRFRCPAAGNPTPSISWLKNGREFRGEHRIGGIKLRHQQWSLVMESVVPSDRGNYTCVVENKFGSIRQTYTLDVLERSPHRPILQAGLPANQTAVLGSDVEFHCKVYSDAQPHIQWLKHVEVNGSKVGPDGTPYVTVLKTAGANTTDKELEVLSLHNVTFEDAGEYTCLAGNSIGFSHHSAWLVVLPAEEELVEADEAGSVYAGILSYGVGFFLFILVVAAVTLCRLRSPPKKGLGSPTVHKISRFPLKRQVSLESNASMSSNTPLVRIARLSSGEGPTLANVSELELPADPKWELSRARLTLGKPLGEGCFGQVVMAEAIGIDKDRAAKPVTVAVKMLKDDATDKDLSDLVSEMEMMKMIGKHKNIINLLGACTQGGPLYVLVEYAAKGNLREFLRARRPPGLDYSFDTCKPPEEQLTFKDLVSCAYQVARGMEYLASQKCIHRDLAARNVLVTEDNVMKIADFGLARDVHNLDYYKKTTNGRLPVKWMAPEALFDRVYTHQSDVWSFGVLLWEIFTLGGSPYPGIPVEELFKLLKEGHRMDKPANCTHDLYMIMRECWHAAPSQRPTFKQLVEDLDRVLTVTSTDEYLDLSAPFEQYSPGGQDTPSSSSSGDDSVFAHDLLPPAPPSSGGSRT
# FGFR1, sequence (P11362 whole entry, looked up): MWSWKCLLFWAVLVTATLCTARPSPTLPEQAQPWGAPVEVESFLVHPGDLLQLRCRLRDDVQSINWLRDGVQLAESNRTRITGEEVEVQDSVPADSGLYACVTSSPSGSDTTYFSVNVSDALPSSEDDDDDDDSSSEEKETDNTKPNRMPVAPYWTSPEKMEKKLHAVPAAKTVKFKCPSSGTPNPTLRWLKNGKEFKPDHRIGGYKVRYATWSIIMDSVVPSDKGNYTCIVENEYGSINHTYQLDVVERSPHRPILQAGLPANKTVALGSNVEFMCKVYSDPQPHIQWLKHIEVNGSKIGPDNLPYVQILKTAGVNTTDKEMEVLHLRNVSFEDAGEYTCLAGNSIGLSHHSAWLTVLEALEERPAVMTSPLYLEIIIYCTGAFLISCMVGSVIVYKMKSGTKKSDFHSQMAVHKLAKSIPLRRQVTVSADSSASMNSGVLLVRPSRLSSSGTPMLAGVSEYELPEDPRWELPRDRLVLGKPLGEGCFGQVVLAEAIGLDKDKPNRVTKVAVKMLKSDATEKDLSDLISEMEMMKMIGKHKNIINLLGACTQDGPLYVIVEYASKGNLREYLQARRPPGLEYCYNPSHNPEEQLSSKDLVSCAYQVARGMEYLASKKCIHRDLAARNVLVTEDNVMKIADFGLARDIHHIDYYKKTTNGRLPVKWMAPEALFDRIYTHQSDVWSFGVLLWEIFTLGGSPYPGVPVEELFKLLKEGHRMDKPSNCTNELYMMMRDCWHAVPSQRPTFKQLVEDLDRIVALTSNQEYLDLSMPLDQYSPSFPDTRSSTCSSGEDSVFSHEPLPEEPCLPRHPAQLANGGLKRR
# EPHB1, sequence (P54762 whole entry, looked up): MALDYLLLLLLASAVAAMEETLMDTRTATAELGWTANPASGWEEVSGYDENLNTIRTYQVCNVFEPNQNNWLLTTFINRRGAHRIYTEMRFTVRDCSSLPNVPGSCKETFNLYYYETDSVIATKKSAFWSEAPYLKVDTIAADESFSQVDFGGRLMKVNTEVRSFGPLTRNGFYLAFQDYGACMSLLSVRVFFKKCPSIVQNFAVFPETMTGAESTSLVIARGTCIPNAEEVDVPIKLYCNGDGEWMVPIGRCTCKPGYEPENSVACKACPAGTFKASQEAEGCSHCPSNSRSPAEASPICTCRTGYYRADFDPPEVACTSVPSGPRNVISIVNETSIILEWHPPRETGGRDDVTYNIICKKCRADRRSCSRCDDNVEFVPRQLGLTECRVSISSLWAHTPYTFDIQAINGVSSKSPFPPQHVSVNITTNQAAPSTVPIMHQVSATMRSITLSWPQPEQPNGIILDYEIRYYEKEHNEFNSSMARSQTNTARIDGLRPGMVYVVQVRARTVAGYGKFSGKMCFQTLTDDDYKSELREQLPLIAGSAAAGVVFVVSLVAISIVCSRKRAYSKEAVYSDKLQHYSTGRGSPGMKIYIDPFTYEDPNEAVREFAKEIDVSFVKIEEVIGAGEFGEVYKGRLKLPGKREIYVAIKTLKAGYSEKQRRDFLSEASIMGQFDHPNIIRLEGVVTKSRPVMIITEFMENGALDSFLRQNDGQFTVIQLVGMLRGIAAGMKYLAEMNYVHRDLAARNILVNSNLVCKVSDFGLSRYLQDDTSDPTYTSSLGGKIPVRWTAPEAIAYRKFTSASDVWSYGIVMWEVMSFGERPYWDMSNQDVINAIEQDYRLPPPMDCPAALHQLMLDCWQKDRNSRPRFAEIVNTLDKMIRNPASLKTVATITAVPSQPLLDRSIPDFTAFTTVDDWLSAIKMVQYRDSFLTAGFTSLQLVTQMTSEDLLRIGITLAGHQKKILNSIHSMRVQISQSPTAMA
SH2 binding enrichment (Grb2 SH2),SH2 binding enrichment (SHP2-C SH2),SH2 binding enrichment (c-Src SH2),Sequence,phosphorylation enrichment (AncSZ),phosphorylation enrichment (EPHB1),phosphorylation enrichment (EPHB2),phosphorylation enrichment (FGFR1),phosphorylation enrichment (FGFR3),phosphorylation enrichment (Fer (mouse)),phosphorylation enrichment (Fes),phosphorylation enrichment (Fyn),phosphorylation enrichment (Hck),phosphorylation enrichment (Jak2),phosphorylation enrichment (MERTK),phosphorylation enrichment (c-Abl (mouse)),phosphorylation enrichment (c-Src)
0.712,0.419,0.697,IRSGIYYKPES [L2HGDH_Y102_H98R],0.899,0.982,0.753,0.745,0.735,0.465,0.687,1.97,2.6,1.26,9.7,8.79,1.51
0.89,0.662,0.617,IRTDAYVQAMT [RPE65_Y89_R91Q],0.543,0.378,0.471,0.458,0.503,0.41,0.644,0.49,0.608,0.529,0.374,0.572,0.446
0.76,0.76,0.767,IRYPPYTDWNQ [ALDH3B2_Y365_H361R],0.781,0.428,0.494,0.628,0.612,0.567,0.826,0.468,0.464,0.675,0.429,0.487,0.418
0.812,0.873,1.13,ISDNAYQYMLT [MYH7_Y162],1.51,0.659,0.496,3.44,2.15,9.28,1.23,0.553,0.577,1.17,2.15,0.704,0.975
0.839,1.53,0.812,ISHVAYCVLGK [TRRAP_Y892_R893C],1.3,0.731,0.79,0.73,0.834,0.952,1.49,0.675,1.09,1.17,1.14,1.03,0.523
0.85,0.787,0.414,IVEFAYNDKAV [PUM3_Y259_I264V_YF],1.09,0.561,0.632,0.59,0.767,0.462,0.938,0.52,0.573,0.968,0.527,0.705,0.547
2.03,1.37,1.89,IVGLLYRLLTE [SETX_Y1978],1.29,0.665,0.672,0.699,0.937,0.561,1.35,0.436,0.596,1.13,0.71,0.733,0.539
0.872,1.2,0.601,IVKAFYVRARA [AIPL1_Y268_YF],1.11,0.5,0.588,0.464,0.688,0.465,1.07,0.433,0.494,0.95,0.424,0.699,0.396

# Source: the supplement of paper PMC10065799, “High-throughput profiling of sequence recognition by tyrosine kinases and SH2 domains using bacterial peptide display” (eLife, 2023)
